{
  "source": "patent US20190175515A1",
  "about": "“CHOLESTERYL ESTER VESICLES LOADING PEPTIDES, PROTEINS AND NUCLEIC ACIDS INTO CHYLOMICRONS AND BODY CELLS” (priority 2016, published 2019)",
  "key": {"MCF-7 cells [1]": {"tested_on": "MCF-7 cells", "assay": "Pilot study of MG-132 on MCF-7 cells exposed to 1117 insulin-cholestosomes", "format": "cell-based, human", "description": "A pilot study was performed whereby […] to MCF -7 cells that were also exposed to 1117 insulin-cholestosomes."}, "[2]": {"conditions": "Eligen proteinaceous coating and SNAC; cited from earlier work"}, "[3]": {"conditions": "rats, chitosan nanoparticles; cited from earlier work"}, "MCF-7 cells [4]": {"tested_on": "MCF-7 cells", "assay": "FITC cholestosome (myristate/palmitate) uptake in MCF-7 cells, fluorescent imaging", "format": "cell-based, human", "method": "In this experiment, 22 ug of FITC formulation was placed on MCF-7 cells, Fluorescent imaging was performed over time, with images taken at 2, 4, 8 and 24 hours."}, "melanoma": {"tested_on": "melanoma", "conditions": "patients with melanoma; cited from earlier work"}, "[5]": {"assay": "Insulin solubility and integrity versus pH (HPLC)", "format": "physicochemical", "description": "Many preparations of cholestosome insulin have been made. […] Accordingly, the solubility limits of Insulin were empirically tested at pH 3.5, 6, 7 and 8. Data on the […] of each formulation are plotted by pH of the insulin solution are plotted at two different ionic strengths of PBS buffer in FIG. 9.\nThe maximum concentration at each tested pH was applied to the following: Stock solutions for each pH and ionic strength combination are prepared. The empirically determined maximum concentration of Human Recombinant Insulin (SAFC Biosciences and. ProSpec) was added to the stock solution. These stock solutions were then readjusted to the desired pH using either 1M HCl or 1M NaOH as needed 5.0 ml of stock solution was heated to 55° C. and used as the aqueous component in preparations."}, "[6]": {"format": "in vivo", "conditions": "rats", "description": "These experiments were conducted to evaluate the comparative plasma and tissue to plasma ratios of insulin between a cholesterol-encapsulated insulin formulation (cholestosome-insulin) administered by oral gavage and by subcutaneous injection, both compared with the same insulin administered subcutaneously (s.c.) In healthy female Wistar rats.\nThis study was designed for comparison of insulin bioavailability from the formulations administered, which is defined by the Area under the curve (AUC) calculated as the ratio of Oral to […] over 24 hours following the dosing of the formulation,\nSixteen healthy female Wistar rats ranging from 246.5 to 292.8 g in body weight were distributed into three study groups. Two 6-rat cohorts were dosed with cholestosome insulin oral and SC injection and the remaining 4 rats were given subcutaneous regular insulin as controls. Each rat was dosed with 1.0 ml/animal of a solution identified by Sponsor with cage number and rat number only. Two groups of female Wistar rats were fasted, ranging in duration from 3 hr prior—to 1 hr post-dosing. Rats had free access to water at all times. […] Rats were monitored daily for mortality and morbidity, including signs of hypoglycemia. […]\nResults. […] All AUG values were corrected for actual dose given (subtracting residual returned) and expressed as AUG to a dose of 0.25 units, which was approximately 1 unit/kg of body weight. […]"}, "[7]": {"assay": "Temperature stability of insulin", "format": "physicochemical", "description": "Once there is the addition of the aqueous molecule or construct, the mixture is sonicated until there is a cloudy solution formed, thereby minimizing waste from un-dissolved esters, with sonication providing energy for unilamellar vesicle formation. The aqueous component is also maintained at the target temperature prior to its addition, and as stated previously for most peptides, proteins and genes, the highest temperature that can be tolerated is only about 45-50° C.\nOn the basis of these finding and considering the stability of the proteins and peptides being formulated, including insulin by way of example, the operating temperature of encapsulation procedures was kept,between 40 and 55 degrees centigrade. […] By way of example, optimal insulin preparation was at 37-55 degrees centigrade."}},
  "note": "Residues, ends and D or L forms follow the SMILES beside them. *: point of attachment. Cbz = O=C(OCc1ccccc1)*",
  "data": [
    {"compound": "FITC-insulin: FITC labeled regular insulin purchased commercially, unencapsulated", "values": [
      {"measurement": "FITC signal found in the Caco-2 cells", "setting": "Caco-2 cells; Caco-2", "result": "about 1%"},
      {"measurement": "FITC signal remaining on the apical side", "setting": "Caco-2 cells; human, Caco-2, 24 h", "result": "~100", "unit": "%"}
    ]},
    {"compound": "acid protected insulin: insulin protected from acid but not cholestosome encapsulated, Caco-2 control", "values": [
      {"measurement": "insulin passing the apical Caco-2 barrier", "setting": "Caco-2 cells; Caco-2", "result": "< 5", "unit": "%"}
    ]},
    {"compound": "CC(C)C[C@@H](C=O)NC(=O)[C@H](CC(C)C)NC(=O)[C@H](CC(C)C)NC(=O)OCc1ccccc1", "note": "[MG-132] (Cbz-Leu-Leu-Leu-aldehyde)", "values": [
      {"measurement": "effect on exocytosis of insulin-cholestosomes", "setting": "MCF-7 cells [1]", "result": "caused the likely exocytosis of more intact insulin-cholestosomes"}
    ]},
    {"compound": "semaglutide: a GLP-1 agonist under development by Novo Nordisk", "values": [
      {"measurement": "oral bioavailability", "setting": "[2]", "result": 2.5, "unit": "%"}
    ]},
    {"compound": "Aspart Insulin", "values": [
      {"measurement": "oral bioavailability of insulin", "setting": "[3]", "result": 17, "unit": "%"}
    ]},
    {"compound": "Fluorescein Isothiocyanate [FITC]", "values": [
      {"measurement": "uptake / fluorescence, encapsulated FITC and FITC alone", "setting": "MCF-7 cells [4]", "result": "uptake of FITC itself into MCF-7 cells"}
    ]},
    {"compound": "ipilimumab: CTLA-4 antibody", "values": [
      {"measurement": "overall tumor response (OR) rate", "setting": "melanoma", "result": 11, "unit": "%"}
    ]},
    {"compound": "Insulin: Human Recombinant Insulin made in bacteria", "values": [
      {"measurement": "Insulin solubility", "setting": "[5]; pH 8.0", "result": "high"},
      {"measurement": "integrity of insulin by HPLC analysis", "setting": "[5]; pH (8) environment", "result": "breaks down the insulin A/B Dimer"},
      {"measurement": "signs of drug toxicity or severe hypoglycemia", "setting": "[6]", "result": "No signs of drug toxicity or severe hypoglycemia"},
      {"measurement": "tolerability", "setting": "[6]; oral and SC (cholestosome), SC (regular insulin)", "result": "well tolerated"},
      {"measurement": "oral bioavailability of insulin", "setting": "[3]", "result": "17-20%"},
      {"measurement": "stability across operating temperature range", "setting": "[7]; between 40 and 55 degrees centigrade", "result": "stable"},
      {"measurement": "temperature up to which insulin remains stable", "setting": "[7]; under certain conditions", "result": "up to 55 °C"}
    ]}
  ]
}
